# Results: patent publication US20100168026A1, “INSULIN SECRETION INDUCER, AND ACCELERATOR FOR INCREASING THE NUMBER OF PANCREATIC BETA-CELLS” (priority 2007, published 2010)
# B1: mCF266: Murine DNA SEQ. ID. No. 1 encoding membrane protein Tm4sf20; tested as transfected-cell supernatant, adenoviral vector and transgene (protein)
# chain: MTCCEGWTSCNGFSLLILILLGVVINCIPLGISLVEADSTSQNPISCYEWWFPGIIGAGLMAIPATTMSLAARKRACCNNKTGMFLSSLFSVITVVGAVYCMLVSLQALLEGPLICNTQANSTVTCEFSLKNLSKFDPESFNLLWFFNGTCVSPTDFKNPTINNMVSNWKIPNSNSEEDRHRIFHFSVFMSLLLVGILELLFGLSQILIGFLGCLCGVSQRRSQIV
# modifications: Mouse
# notes: ID; No. 1 encoding membrane protein Tm4sf20; tested as transfected-cell supernatant, adenoviral vector and transgene
# B2: hCF266(27V): Human DNA SEQ. ID. No. 4 encoding TM4SF20, 27th amino acid valine; tested as transfected-cell supernatant and adenoviral vector (protein)
# chain: MTCCEGWTSCNGFSLLVLLLLGVVLNVIPLIVSLVEEDQFSQNPISCFEWWFPGIIGAGLMAIPATTMSLTARKRACCNNRTGMFLSSLFSVITVIGALYCMLISIQALLKGPLMCNSPSNSNANCEFSLKNISDIHPESFNLQWFFNDSCAPPTGFNKPTSNDTMASGWRASSFHFDSEENKHRLIHFSVFLGLLLVGILEVLFGLSQIVIGFLGCLCGVSKRRSQIV
# modifications: Human
# notes: ID; No. 4 encoding TM4SF20, 27th amino acid valine; tested as transfected-cell supernatant and adenoviral vector
# What was measured:
# [1] = tested on: pancreatic β-cells; experiment: Surface ratio of β-cells to α-cells in STZ mice administered synthetic polypeptides A-C; assay type: in vivo, C57BL/6 mouse; settings: STZ mouse, 25 nmol/kg body weight i.p. twice daily for eight weeks; vs saline; FIG. 8
# Method: In the sixth embodiment, the action of synthetic polypeptides A-C on Type-1 diabetes STZ model mice was confirmed in the same manner as the third embodiment.
# Firstly a 7-week old C57BL/6 mouse (body weight approximately 18-20 g) was fasted for 18 hours from day 0 and then streptozocin dissolved in saline (100 mg/kg body weight) was administered into the interperitoneal region and free feeding was immediately allowed. […] The serum blood-glucose level was measured on the seventh day. A fasting blood glucose level of greater than or equal to 150 mg/dL was determined as diabetes and the experiment described hereafter was conducted. STZ mice determined to have diabetes were administered into the interperitoneal region twice daily the polypeptide A-C (25 nmol/kg body weight) dissolved in saline for eight weeks from the seventh day.
# The pancreas of the STZ mice was removed and after fixing the tissue with paraformaldehyde, the tissue sample preparation office at University of Tsukuba was employed to prepare a paraffin-embedded section. […] The section was thereafter mounted on a fluorescence photobleaching prevention agent (VECTASHILD Mounting Medium; Vector) and observed through a fluorescence microscope (BZ-8000; KEYENCE) to measure the surface ratio (β-cells/α-cells) of β-cells to α-cells. […]
# [2] = tested on: type-2 diabetes model KK/Ay mouse; experiment: Intravenous glucose tolerance test after adenoviral expression of mCF266 in KK/Ay mouse; assay type: in vivo; settings: adenoviral vector i.v. 6×10^9 PFU/mL, after four days, vs Ad GFP
# Text: In the second embodiment, an adenoviral vector expressing mCF266 was used to confirm the action of mCF266 with respect to a KK/Ay mouse which is a type-2 diabetes model mouse.
# Firstly an adenoviral vector (prepared using ViraPower which is a tradename of Invitrogen) constructed by linking mCF266 to a CAG promoter was intravenously injected at a concentration of 6×10^9 PFU/mL into the caudal vein of a 18-week old KK/Ay mouse (body weight approximately 47-51 g) given a high-fat high-sucrose diet. After four days, an intravenous glucose tolerance test (i.v. GTT) was performed by periodically taking blood and measuring the blood-glucose level of the serum and the insulin level.
# Consequently expression of mCF266 is shown to induce insulin secretion.
# [3] = tested on: pancreatic β-cells; experiment: Surface area and number of β-cells (islets of Langerhans) in mCF266 transgenic mice; assay type: in vivo, mouse
# Method: Firstly, an mCF266 expression vector (pCAGGS-mCF266) was constructed by linking mCF266 to a CAG promoter and linearized. The University of Tsukuba Laboratory Animal Resource Center was employed to produce a transgenic mouse. The introduced gene was confirmed using PCR and southern blotting and mating for five generations with C57BL/6 mice was conducted.
# The pancreas of the transgenic mice was removed and after fixing the tissue with paraformaldehyde, the tissue sample preparation office at University of Tsukuba was employed to prepare a paraffin-embedded section. After the section was removed from paraffin, antigen activation was performed for 30 minutes at room temperature using 0.1% Triton X-100 and then blocking was performed for one hour at room temperature using 5% skim milk. After blocking, a primary antibody reaction was performed overnight at 4° C. using polyclonal anti-insulin guinea pig antibody (Daco) and polyclonal anti-glucagon rabbit antibody (Daco). The section was washed using Tris-buffered saline containing 0.1% Tween20 (TBST). […] The section was thereafter mounted on a fluorescence photobleaching prevention agent (VECTASHILD Mounting Medium; Vector) and observed through a fluorescence microscope (BZ-8000; KEYENCE) to measure the surface area of islets of Langerhans stained by insulin relative to the pancreas surface area on the section. […]
# [4] = tested on: MIN6 cells; experiment: Glucose-stimulated insulin secretion (GSIS) in MIN6 cells stimulated with culture supernatant of CF266-transfected HEK293T cells; assay type: cell-based, murine; settings: culture supernatant of transfected HEK293T cells : KRBH buffer 1:1 (v/v), stimulated one hour, vs Mock, FIG. 2
# Method: In Embodiment 1, an action was confirmed with respect to MIN6 cells using a culture supernatant of a HEK293T cell strain originating from fetal kidney epithelial cells transfected with CF266.
# Firstly, HEK293T cells subcultured in DMEM media enriched with 5% FCS and an antibiotic (penicillin 100 U/mL, streptomycin […]) were plated onto a 10 cm dish at a concentration of 1×10^6 cells/dish. On the following day, HEK292T cells were transfected with an expression vector for mCF266 (pCAGGS-mCF266) using a FuGENE6 (Roche) and mCF266 was forcibly expressed. After 24 hours, the media was exchanged for Opti-MEM media and after a further 24 hours, a culture supernatant was recovered.
# Next, MIN6 cells subcultured in DMEM media (high glucose, Invitrogen) enriched with 15% FCS, an antibiotic (penicillin 100 U/mL, streptomycin […]) and 2-mercaptoethanol were plated onto a 24-well plate at a concentration of 3×10^5 cells/well. On the following day, 0.5 mL/well KRBH buffer solution (2.8 mM glucose) was added and pre-culturing was conducted for 30 minutes. Then 0.5 mL/well of a mixed solution of the above culture supernatant and KRBH buffer solution (1:1(v/v)) was added and stimulated for one hour. Then glucose-stimulated insulin secretion (GSIS) was measured for the MIN6 cells. […]
# [5] = tested on: type-1 diabetes STZ model mouse; experiment: Oral glucose tolerance test after adenoviral expression of hCF266(27V) in STZ model mouse; assay type: in vivo, C57BL/6 mouse; settings: adenovirus i.v. 1×10^9 PFU/mL on day 7, OGTT on twelfth day, vs Ad GFP or Ad (−), FIG. 5
# Method: In the fourth embodiment, an adenoviral vector expressing hCF266(27V) was used to confirm the action of hCF266(27V) with respect to an STZ model mouse which is a type-1 diabetes model mouse.
# Firstly a 7-week old C57BL/6 mouse (body weight approximately 18-20 g) was fasted for 18 hours from day 0 and then streptozocin dissolved in saline (100 mg/kg body weight) was administered into the interperitoneal region and free feeding was immediately allowed. From the following day, after fasted for 18 hours the same amount of streptozocin was re-administered on the second day into the interperitoneal region and free feeding was immediately allowed. The serum blood-glucose level was measured on the seventh day. A fasting blood glucose level of greater than or equal to 150 mg/dL was determined to be diabetes and the experiment described hereafter was conducted. On the same day, a recombinant adenovirus (prepared using ViraPower which is a tradename of Invitrogen) constructed by linking hCF266(27V) to a CAG promoter was intravenously injected at a concentration of 1×10^9 PFU/mL into the caudal vein of a STZ mouse determined to be suffering diabetes. On the twelfth day, an oral glucose tolerance test (OGTT) was performed by periodically taking blood and measuring the blood-glucose level of the serum and the insulin level. […]
# [6] = tested on: pancreatic β-cells; experiment: Surface ratio of β-cells to α-cells in pancreas sections of STZ mice given hCF266(27V) adenovirus; assay type: in vivo, C57BL/6 mouse; settings: STZ mouse, adenoviral expression; vs Ad GFP or Ad (−); FIG. 6
# Method: Firstly a 7-week old C57BL/6 mouse (body weight approximately 18-20 g) was fasted for 18 hours from day 0 and then streptozocin dissolved in saline (100 mg/kg body weight) was administered into the interperitoneal region and free feeding was immediately allowed. From the following day, after fasted for 18 hours the same amount of streptozocin was re-administered on the second day into the interperitoneal region and free feeding was immediately allowed. The serum blood-glucose level was measured on the seventh day. A fasting blood glucose level of greater than or equal to 150 mg/dL was determined to be diabetes and the experiment described hereafter was conducted. On the same day, a recombinant adenovirus (prepared using ViraPower which is a tradename of Invitrogen) constructed by linking hCF266(27V) to a CAG promoter was intravenously injected at a concentration of 1×10^9 PFU/mL into the caudal vein of a STZ mouse determined to be suffering diabetes. On the twelfth day, an oral glucose tolerance test (OGTT) was performed by periodically taking blood and measuring the blood-glucose level of the serum and the insulin level.
# The pancreas of the STZ mice was removed and after fixing the tissue with paraformaldehyde, the tissue sample preparation office at University of Tsukuba was employed to prepare a paraffin-embedded section. […]
molecule,measurement,setting,value
"ALYCMLISIQALLKGPLMC (Human) [polypeptide A, 19 amino acid fragment, 98-116th amino acids of the hCF266(27V) polypeptide]",surface ratio (β-cells/α-cells) β-cells to α-cells,[1],excellent
B1,blood-glucose level (i.v. GTT),[2]; FIG. 3A,only a slightly low tendency
same,insulin value (i.v. GTT),[2]; FIG. 3B,significantly higher
same,number of β-cells,"[3]; transgenic mice hetero (+/−) or homo (+/+) vs wild-type (normalized to 1), FIG. 7B",conspicuously increased
same,surface area of β-cells,"[3]; transgenic mice hetero (+/−) or homo (+/+) vs wild-type, FIG. 7A",conspicuously increased
B2,glucose-stimulated insulin secretion (GSIS),[4],excellent action
same,blood glucose level (OGTT),[5],significantly reduced
same,surface ratio (β-cells/α-cells) of β cells to α cells,[6],significantly increased
